# From article PMC8053085, “Di-phosphorylated BAF shows altered structural dynamics and binding to DNA, but interacts with its nuclear envelope partners” (Nucleic Acids Research, 2021)
# “And” between values parts separate entries of the source, which are not always exact repeats. Equal values may be shown once.
# T1: Di-phosphorylated BAF (BAF phosphorylated by VRK1 on Thr3 and Ser4) (human, UniProt O75531 1-89, glycine as residue 1 instead of the native methionine | C67 mutated into …, phosphothreonine at 3, phosphoserine at 4)
# T1 sequence: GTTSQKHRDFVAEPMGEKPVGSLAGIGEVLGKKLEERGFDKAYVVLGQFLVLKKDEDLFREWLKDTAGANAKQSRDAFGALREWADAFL
# T2: Barrier-to-autointegration factor (BAF construct with the four cysteines replaced by alanines) (human, UniProt O75531 1-89, glycine as residue 1 instead of the native methionine | C67 mutated into …)
# T2 sequence: T1 sequence
# T3: IgFold domain of human lamin A/C from amino acid 411 to amino acid 566 (human, UniProt P02545 411-566)
# T3 construct: human lamin A/C, residues 411-566 including the IgFold domain; Cloned into a pGEX vector; also called LamIgF; lamin A/C Igfold domain; source: E. coli BL21 DE3 Star, purified (glutathione beads, thrombin cleavage, gel filtration); 15N labelled for NMR
# T3 sequence (looked up): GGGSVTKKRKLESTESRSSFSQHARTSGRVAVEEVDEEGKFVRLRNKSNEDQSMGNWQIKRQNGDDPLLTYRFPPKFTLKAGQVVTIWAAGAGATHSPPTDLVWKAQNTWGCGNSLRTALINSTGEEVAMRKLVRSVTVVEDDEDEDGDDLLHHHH
# B1: LEM domain of human emerin from amino acid 1 to amino acid 46 (domain or fragment, UniProt P50402 1-46, looked up)
# chain: MDNYADLSDTELTTLLRRYNIPHGPVVGSTRRLYEKKIFEYETQRR
# notes: human emerin, residues 1-46 (LEM domain); also called emerin LEM domain; LEM fragment
# B2: Barrier-to-autointegration factor (BAF construct with the four cysteines replaced by alanines) (natural protein, human, UniProt O75531 1-89, looked up)
# chain: T1 sequence
# notes: human barrier-to-autointegration factor (BANF1), an 89-aa protein; residue 1 is a glycine left by the TEV site instead of the native methionine; all four cysteines mutated into alanine; also called BAF WT; non-phosphorylated BAF; not shown: His tag, N-terminal, cleaved
# B3: Di-phosphorylated BAF (BAF phosphorylated by VRK1 on Thr3 and Ser4) (natural protein, human, UniProt O75531 1-89, looked up)
# chain: T1 sequence
# modifications: phosphothreonine at 3, phosphoserine at 4
# notes: human barrier-to-autointegration factor (BANF1), an 89-aa protein; residue 1 is a glycine left by the TEV site instead of the native methionine; all four cysteines mutated into alanine; phosphorylated on Thr3 and Ser4; Same construct as m1, then phosphorylated; also called pBAF; not shown: His tag, N-terminal, cleaved
# Legend:
# [1] = system: BAF WT (Cys-less construct) (human); assay: ITC; conditions: ITC: 50 mM Tris-HCl pH 8.0, 150 mM NaCl, 15 C, 20 uM BAF in cell, DNA 200 uM (7/21 nt) or 100 uM (48 nt) in syringe; fluorescence assay buffer not given in the …
# BAF A12T (human) [2] = assay: ITC; conditions: ITC: 50 mM Tris-HCl pH 8.0, 150 mM NaCl, 15 C, 20 uM BAF in cell, DNA 200 uM (7/21 nt) or 100 uM (48 nt) in syringe; fluorescence assay buffer not given in the …
# [3] = system: BAF WT (Cys-less construct) (human); assay: fluorescence, dye-labelled coated dsDNA; conditions: mean of 5; ITC: 50 mM Tris-HCl pH 8.0, 150 mM NaCl, 15 C, 20 uM BAF in cell, DNA 200 uM (7/21 nt) or 100 uM (48 nt) in syringe; fluorescence assay buffer not given in the …
# BAF A12T (human) [4] = assay: fluorescence, dye-labelled coated dsDNA; conditions: mean of 4; ITC: 50 mM Tris-HCl pH 8.0, 150 mM NaCl, 15 C, 20 uM BAF in cell, DNA 200 uM (7/21 nt) or 100 uM (48 nt) in syringe; fluorescence assay buffer not given in the …
# [5] = system: pBAF (pThr3, pSer4) (human); assay: fluorescence, dye-labelled coated dsDNA; conditions: mean of 2; ITC: 50 mM Tris-HCl pH 8.0, 150 mM NaCl, 15 C, 20 uM BAF in cell, DNA 200 uM (7/21 nt) or 100 uM (48 nt) in syringe; fluorescence assay buffer not given in the …
# BAF S4E (human) = assay: fluorescence, dye-labelled coated dsDNA; conditions: mean of 2; ITC: 50 mM Tris-HCl pH 8.0, 150 mM NaCl, 15 C, 20 uM BAF in cell, DNA 200 uM (7/21 nt) or 100 uM (48 nt) in syringe; fluorescence assay buffer not given in the …
# [6] = biological target: B3; assay: ITC; VP-ITC, 15°C; BAF or pBAF dimers at 20 μM in the cell titrated with LamIgF at 100 μM or LEM at 150 μM in the syringe; 50 mM HEPES pH 7.4, 150 mM NaCl; in duplicate; conditions: both partners purified
# [7] = biological target: B2; assay: as above; conditions: both partners purified
# [8] = biological target: T1, Di-phosphorylated BAF (BAF …); assay: ITC; phosphorylated BAF (pThr3, pSer4)
# [9] = biological target: T2, Barrier-to-autointegration factor (BAF …); assay: ITC
# [10] = biological target: T3, IgFold domain of human lamin A/C from …; assay: ITC; VP-ITC, 15°C; BAF or pBAF dimers at 20 μM in the cell titrated with LamIgF at 100 μM or LEM at 150 μM in the syringe; 50 mM HEPES pH 7.4, 150 mM NaCl; in duplicate; conditions: both partners purified
molecule,measurement,setting,value
7 nt dsDNA,Kd,[1],1000 nM and 2100 nM
same,Kd,BAF A12T (human) [2],1700 nM and 920 nM
21 nt dsDNA,Kd,[1],170 nM and 110 nM
same,Kd,BAF A12T (human) [2],300 nM and 210 nM
"48 nt dsDNA, coated",Kd,[3],2.54 nM
same,Kd,BAF A12T (human) [4],2.5 nM
same,Kd,[5],10700 nM
same,Kd,BAF S4E (human),15000 nM
48 nt dsDNA (ITC),Kd,[1],41.1 nM
same,Kd,BAF A12T (human) [2],28.8 nM
B1,Kd,[6],~1000 nM
same,Kd,[7],~1000 nM
same,Kd,[8],700 nM
same,Kd,[9],1100 nM
B2,Kd,[10],4500 ± 500 nM
B3,Kd,[10],4900 ± 800 nM
